Molecular target: the molecule itself
Test: cryo-EM structure; purified MmIGF1R and HsIGF1 mixed at molar ratio 1:2, 1 h at 4 °C, complex purified by SEC in 20 mM Hepes-Na pH 7.4, 200 mM NaCl, 0.03% DDM; 4.3 Å

B1: full-length mouse IGF1R (MmIGF1R), residues 1–1262, Y951A, D1107N (receptor)
chain: not shown
notes: Mouse type 1 insulin-like growth factor receptor with C-terminal tail truncation and kinase dead mutation, residues 1–1262, Y951A, D1107N; Disulfide-linked covalent dimer of two protomers; it is written here as one chain per protomer; also called type 1 insulin-like growth factor receptor; not shown: Tsi3, C-terminal, cleaved
stoichiometry N: 2

From article PMC6783537, “Structural basis of the activation of type 1 insulin-like growth factor receptor” (Nature Communications, 2019)
